According to IntAct's records for PubMed 15282298:

B1: Meiosis-inducing protein 1 (Saccharomyces cerevisiae), P21190 (parent)
chain: MQADMHGKLHAALEDGFFLFPFEQQQQPNIYYDTTTDQEDRPCFSFGSTISPRSWHFEKSDKIASSQLQNLVHTQPIHLINPQILFNEEFLNLENIDSQPISKETKTTKDCTMATGPERGKKSSESTRSSSLSSLFSNDESASTFHSSFNNHDNFQKSNRNGDDIDISDTIKYETNTNAQKDIKIFQENFEFNEFPYTQDFYPYTTNYTYSKPTNIHESINSKNTDSYSQYQDQFPPHTDNIHSFNNRHYSNHKSTNCNYYNNTSNNNNASDNVYEADPFIDEPQVPSYYYPLEIAFDVEKSPPPSLQKLNSKELEFLKKLNSKLSRYAAAYSFSSSNDQDYYDKVRFQEISYKFSKTYS
partner: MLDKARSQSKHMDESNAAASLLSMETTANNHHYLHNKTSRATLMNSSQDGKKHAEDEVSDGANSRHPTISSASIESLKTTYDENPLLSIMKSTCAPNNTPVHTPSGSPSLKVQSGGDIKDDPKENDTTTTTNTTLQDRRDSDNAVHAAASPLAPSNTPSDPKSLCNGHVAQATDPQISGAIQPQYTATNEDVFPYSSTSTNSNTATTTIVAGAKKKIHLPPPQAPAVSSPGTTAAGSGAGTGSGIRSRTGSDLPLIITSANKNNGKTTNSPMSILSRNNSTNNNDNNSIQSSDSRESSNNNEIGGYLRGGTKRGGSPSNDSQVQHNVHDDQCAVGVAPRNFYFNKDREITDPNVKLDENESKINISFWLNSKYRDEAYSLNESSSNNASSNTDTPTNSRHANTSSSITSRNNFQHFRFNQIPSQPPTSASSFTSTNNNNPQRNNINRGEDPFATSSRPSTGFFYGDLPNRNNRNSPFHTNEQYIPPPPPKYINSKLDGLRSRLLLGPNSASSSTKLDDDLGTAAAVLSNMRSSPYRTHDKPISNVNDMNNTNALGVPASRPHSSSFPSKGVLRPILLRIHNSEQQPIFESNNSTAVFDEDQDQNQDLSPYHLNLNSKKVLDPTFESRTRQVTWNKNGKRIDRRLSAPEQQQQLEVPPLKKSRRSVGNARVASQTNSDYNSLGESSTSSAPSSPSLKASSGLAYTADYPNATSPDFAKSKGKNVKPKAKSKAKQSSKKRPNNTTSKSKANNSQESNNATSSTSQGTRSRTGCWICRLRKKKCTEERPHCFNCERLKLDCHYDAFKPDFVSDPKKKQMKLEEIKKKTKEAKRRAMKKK

Variants of: B1
Settings: with ume6_yeast UME6, P39001

Row | Variant | effect of a mutation on the interaction
1 | MQADMHGKLHAALEDGFFLFPFEQQQQPNIYYDTTTDQEDRPCFSFGSTISPRSWHFEKSDKIASSQLQNLVHTQPIHLINPQILFNEEFLNLENIDSQPISKETKTTKDCTMATGPERGKKSSESTRSSSLSSLFSNDESASTFHSSFNNHDNFQKSNRNGDDIDISDTIKYETNTNAQKDIKIFQENFEFNEFPYTQDFYPYTTNYTYSKPTNIHESINSKNTDSYSQYQDQFPPHTDNIHSFNNRHYSNHKSTNCNYYNNTSNNNNASDNVYEADPFIDEPQVPSYYYPLEIAFDVEKAPPPSLQKLNSKELEFLKKLNSKLSRYAAAYSFSSSNDQDYYDKVRFQEISYKFSKTYS [S302A] | with no effect
2 | MQADMHGKLHAALEDGFFLFPFEQQQQPNIYYDTTTDQEDRPCFSFGSTISPRSWHFEKSDKIASSQLQNLVHTQPIHLINPQILFNEEFLNLENIDSQPISKETKTTKDCTMATGPERGKKSSESTRSSSLSSLFSNDESASTFHSSFNNHDNFQKSNRNGDDIDISDTIKYETNTNAQKDIKIFQENFEFNEFPYTQDFYPYTTNYTYSKPTNIHESINSKNTDSYSQYQDQFPPHTDNIHSFNNRHYSNHKSTNCNYYNNTSNNNNASDNVYEADPFIDEPQVPSYYYPLEIAFDVEKDPPPSLQKLNSKELEFLKKLNSKLSRYAAAYSFSSSNDQDYYDKVRFQEISYKFSKTYS [S302D] | with no effect
3 | MQADMHGKLHAALEDGFFLFPFEQQQQPNIYYDTTTDQEDRPCFSFGSTISPRSWHFEKSDKIASSQLQNLVHTQPIHLINPQILFNEEFLNLENIDSQPISKETKTTKDCTMATGPERGKKSSESTRSSSLSSLFSNDESASTFHSSFNNHDNFQKSNRNGDDIDISDTIKYETNTNAQKDIKIFQENFEFNEFPYTQDFYPYTTNYTYSKPTNIHESINSKNTDSYSQYQDQFPPHTDNIHSFNNRHYSNHKSTNCNYYNNTSNNNNASDNVYEADPFIDEPQVPSYYYPLEIAFDVEKSPPPALQKLNSKELEFLKKLNSKLSRYAAAYSFSSSNDQDYYDKVRFQEISYKFSKTYS [S306A] | with no effect
4 | MQADMHGKLHAALEDGFFLFPFEQQQQPNIYYDTTTDQEDRPCFSFGSTISPRSWHFEKSDKIASSQLQNLVHTQPIHLINPQILFNEEFLNLENIDSQPISKETKTTKDCTMATGPERGKKSSESTRSSSLSSLFSNDESASTFHSSFNNHDNFQKSNRNGDDIDISDTIKYETNTNAQKDIKIFQENFEFNEFPYTQDFYPYTTNYTYSKPTNIHESINSKNTDSYSQYQDQFPPHTDNIHSFNNRHYSNHKSTNCNYYNNTSNNNNASDNVYEADPFIDEPQVPSYYYPLEIAFDVEKSPPPSLQKLNSKELEFLKKLNSKLSRYAAAYAFSSSNDQDYYDKVRFQEISYKFSKTYS [S333A] | with no effect
5 | MQADMHGKLHAALEDGFFLFPFEQQQQPNIYYDTTTDQEDRPCFSFGSTISPRSWHFEKSDKIASSQLQNLVHTQPIHLINPQILFNEEFLNLENIDSQPISKETKTTKDCTMATGPERGKKSSESTRSSSLSSLFSNDESASTFHSSFNNHDNFQKSNRNGDDIDISDTIKYETNTNAQKDIKIFQENFEFNEFPYTQDFYPYTTNYTYSKPTNIHESINSKNTDSYSQYQDQFPPHTDNIHSFNNRHYSNHKSTNCNYYNNTSNNNNASDNVYEADPFIDEPQVPSYYYPLEIAFDVEKSPPPSLQKLNSKELEFLKKLNSKLSRYAAAYSFSSANDQDYYDKVRFQEISYKFSKTYS [S337A] | with no effect
6 | MQADMHGKLHAALEDGFFLFPFEQQQQPNIYYDTTTDQEDRPCFSFGSTISPRSWHFEKSDKIASSQLQNLVHTQPIHLINPQILFNEEFLNLENIDSQPISKETKTTKDCTMATGPERGKKSSESTRSSSLSSLFSNDESASTFHSSFNNHDNFQKSNRNGDDIDISDTIKYETNTNAQKDIKIFQENFEFNEFPYTQDFYPYTTNYTYSKPTNIHESINSKNTDSYSQYQDQFPPHTDNIHSFNNRHYSNHKSTNCNYYNNTSNNNNASDNVYEADPFIDEPQVPSYYYPLEIAFDVEKSPPPSLQKLNSKELEFLKKLNSKLSRYAAAYSFSSSNDQDYYDKVRFQEIAYKFAKTYA [S352A;S356A;S360A] | with no effect
7 | MQADMHGKLHAALEDGFFLFPFEQQQQPNIYYDTTTDQEDRPCFSFGSTISPRSWHFEKSDKIASSQLQNLVHTQPIHLINPQILFNEEFLNLENIDSQPISKETKTTKDCTMATGPERGKKSSESTRSSSLSSLFSNDESASTFHSSFNNHDNFQKSNRNGDDIDISDTIKYETNTNAQKDIKIFQENFEFNEFPYTQDFYPYTTNYTYSKPTNIHESINSKNTDSYSQYQDQFPPHTDNIHSFNNRHYSNHKSTNCNYYNNTSNNNNASDNVYEADPFIDEPQVPSYYYPLEIAFDVEKSPPPSLQKLNSKELEFLKKLNSKLSRYAAAYSFSSSNDQDYYDKVRFQEISYKFSKTFS [Y359F] | decreasing interaction strength
